Among the data in patent US20100311820, “NUCLEIC ACID MODULATORS OF GLYCOPROTEIN VI” (Regado Biosciences, Inc, published 2010) are Kd values, retold here.

The labels stand for the following.
T1: Glycoprotein VI extracellular domain (Gln21-Lys267) (Homo sapiens, UniProt Q9HCN6 SEQ:1-247)
T1 chain: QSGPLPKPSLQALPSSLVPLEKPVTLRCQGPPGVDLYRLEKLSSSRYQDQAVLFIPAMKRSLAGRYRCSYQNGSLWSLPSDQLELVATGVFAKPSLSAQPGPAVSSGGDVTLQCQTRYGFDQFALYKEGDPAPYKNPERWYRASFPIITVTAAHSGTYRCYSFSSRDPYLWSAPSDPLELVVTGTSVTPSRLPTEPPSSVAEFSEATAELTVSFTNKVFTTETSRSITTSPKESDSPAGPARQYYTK

T2: Glycoprotein VI extracellular domain (Gln21-Lys267) (Homo sapiens) (UniProt Q9HCN6)
T2 sequence: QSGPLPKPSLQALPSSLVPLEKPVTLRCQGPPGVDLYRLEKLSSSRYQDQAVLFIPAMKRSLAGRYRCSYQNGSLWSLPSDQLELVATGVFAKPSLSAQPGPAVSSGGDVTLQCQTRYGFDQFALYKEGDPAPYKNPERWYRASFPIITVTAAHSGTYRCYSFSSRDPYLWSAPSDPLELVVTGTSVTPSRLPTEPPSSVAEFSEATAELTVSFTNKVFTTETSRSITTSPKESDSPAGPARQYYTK

B1: EF-22 (RB433) (ssRNA)
RNA: GGGAGGACGAUGCGGAUUCAACCCGCCUCUGGCAUAAGCCUACCCAUCGUGAUUGUCAGACGACUCGCUGAGGAUCCGAGA
modifications: 2'-F C and U; 2'-OH A and G
B2: RB551 (ssRNA)
RNA: GGAGGACGGCGCGCCUGGCAUAAGCCUCC
modifications: RB540 with 2'-OH G8
B3: RB492 (ssRNA)
RNA: GGGAGGACGGCGCGCCUGGCAUAAGCCUCCC
modifications: RB490 with 2'-OMe A7
B4: RB517 (ssRNA)
RNA: GGGAGGACGGCGCGCCUGGCAUAAGCCUCCC
modifications: RB490 with 2'-OMe G6,A7,C8
B5: RB493 (ssRNA)
RNA: GGGAGGACGGCGCGCCUGGCAUAAGCCUCCC
modifications: RB490 with 2'-OMe C8
B6: RB499 (ssRNA)
RNA: GGGAGGACGGCGCGCCUGGCAUAAGCCUCCC
modifications: RB490 with 2'-OMe G10
B7: RB532 (ssRNA)
RNA: GGGAGGACGGCGCGCCUGGCGUAAGCCUCCC
modifications: RB531 pattern with 2'-OMe G21
B8: RB526 (ssRNA)
RNA: GGGAGGACGGCGCGCCUGGCAUAAGCCUCCC
modifications: RB524 with 2'-deoxy A7,G9
B9: RB533 (ssRNA)
RNA: GGGAGGACGGCGCGCCUUGCAUAAGCCUCCC
modifications: RB526 pattern with 2'-F U18
B10: RB496 (ssRNA)
RNA: GGGAGGACGGCGCGCCUGGCAUAAGCCUCCC
modifications: RB490 with 2'-deoxy C8
B11: RB531 (ssRNA)
RNA: GGGAGGACGGCGCGCCUGGCAUAAGCCUCCC
modifications: RB526 with 2'-OMe G18
B12: RB528 (ssRNA)
RNA: GGGAGGACGGCGCGCCUGGCAUAAGCCUCCC
modifications: RB524 with 2'-OMe A7, 2'-deoxy G9
B13: RB527 (ssRNA)
RNA: GGGAGGACGGCGCGCCUGGCAUAAGCCUCCC
modifications: RB524 with 2'-OMe A7,G9
B14: RB504 (ssRNA)
RNA: GGGAGGACGGCGCGCCUGGCAUAAGCCUCCC
modifications: RB490 with 2'-OMe U22
B15: RB535 (ssRNA)
RNA: GGGAGGACGACGCGUCUGGCAUAAGCCUCCC
modifications: RB526 pattern with 2'-OH A10 and 2'-F U15
B16: RB534 (ssRNA)
RNA: GGGAGGACGGCGCGCCUUGCGUAAGCCUCCC
modifications: RB526 pattern with 2'-F U18 and 2'-OMe G21
B17: RB518 (ssRNA)
RNA: GGGAGGACGGCGCGCCUGGCAUAAGCCUCCC
modifications: RB490 with 2'-OMe G6,A7
B18: RB523 (ssRNA)
RNA: GGGAGGACGGCGCGCCUGGCAUAAGCCUCCC
modifications: RB520 with 2'-OMe A7,G9
B19: RB524 (ssRNA)
RNA: GGGAGGACGGCGCGCCUGGCAUAAGCCUCCC
modifications: RB520 with 2'-F C15
B20: EF-31 T5 (RB442) (ssRNA)
RNA: GGGAGGACGGCGGUCUAAGCUGCCUGGCAUAAGCCUCCC
modifications: 2'-F C and U; 2'-OH A and G
B21: EF-31 T1 (RB436) (ssRNA)
RNA: GGGAGGACGAUGCGGUCUAAGCUGCGUCUGGCAUAAGCCUCACCUACU
modifications: 2'-F C and U; 2'-OH A and G
B22: EF-31 T2 (RB439) (ssRNA)
RNA: GGGAGGACGAUGCGGUCUAAGCUGCGUCUGGCAUAAGCCUCACC
modifications: 2'-F C and U; 2'-OH A and G
B23: EF-22 T1 (RB434) (ssRNA)
RNA: GGGAGGACGAUGCGGAUUCAACCCGCCUCUGGCAUAAGCCUACCC
modifications: 2'-F C and U; 2'-OH A and G
B24: EF-31 T6 (RB443) (ssRNA)
RNA: GGGAGGACGGCGUCUAAGCGCCUGGCAUAAGCCUCCC
modifications: 2'-F C and U; 2'-OH A and G
B25: RB538 (ssRNA)
RNA: GGAGGACGGCGCGCCUGGCAUAAGCCUCC
modifications: RB537 with 2'-OMe G17
B26: E2-6 T1 (RB432) (ssRNA)
RNA: GGGAGGACGAUGCGGAUAGACCGCGUCUGGCAUAAGCCUCC
modifications: 2'-F C and U; 2'-OH A and G
B27: RB547 (ssRNA)
RNA: GGAGGACGGCGCGCCUGGCAUAAGCCUCC
modifications: RB540 with PS A6-C7
B28: EF-31 T7 (RB444) (ssRNA)
RNA: GGGAGGACGGCGCUAACGCCUGGCAUAAGCCUCCC
modifications: 2'-F C and U; 2'-OH A and G
B29: RB452 (ssRNA)
RNA: GGGAGGACGGCGCUAACGCCUGGCAUAAGCCUCCC
modifications: RB448 with 2'-OMe at most of Stem 1 (G1,G2,G3,A4 and 3' partners)
B30: RB462 (ssRNA)
RNA: GGGAGGACGGCGCUAACGCCUGGCAUAAGCCUCCC
modifications: RB448 with 2'-OMe G23,C30
B31: RB460 (ssRNA)
RNA: GGGAGGACGGCGCUAACGCCUGGCAUAAGCCUCCC
modifications: RB448 with 2'-OMe G22
B32: RB455 (ssRNA)
RNA: GGGAGGACGGCGCUAACGCCUGGCAUAAGCCUCCC
modifications: RB448 with 2'-OMe C11,G12,C17,G18
B33: RB453 (ssRNA)
RNA: GGGAGGACGGCGCUAACGCCUGGCAUAAGCCUCCC
modifications: RB448 with 2'-OMe throughout Stem 1
B34: RB552 (ssRNA)
RNA: GGAGGACGGCGCGCCUGGCAUAAGCCUCC
modifications: RB551 with PS G5-A6
B35: RB548 (ssRNA)
RNA: GGAGGACGGCGCGCCUGGCAUAAGCCUCC
modifications: RB540 with PS C7-G8
B36: EF-31 T4 (RB441) (ssRNA)
RNA: GGGAGGACGUGCGGUCUAAGCUGCGCUGGCAUAAGCCUCCC
modifications: 2'-F C and U; 2'-OH A and G
B37: EF-3 T3 (RB445) (ssRNA)
RNA: GGGAGGACGUGCGGAUCACACCGCGCUUGCGUAAGCCUCCC
modifications: 2'-F C and U; 2'-OH A and G
B38: EF-31 T8 (ssRNA)
RNA: GGGAGGACGGCCUAAGCCUGGCAUAAGCCUCCC
modifications: 2'-F C and U; 2'-OH A and G
B39: EF-31 T3 (RB440) (ssRNA)
RNA: GGGAGGACGAUGCGGUCUAAGCUGCGUCUGGCAUAAGCCUCCC
modifications: 2'-F C and U; 2'-OH A and G
B40: RB553 (ssRNA)
RNA: GGAGGACGGCGCGCCUGGCAUAAGCCUCC
modifications: RB551 with PS A6-C7
B41: RB546 (ssRNA)
RNA: GGAGGACGGCGCGCCUGGCAUAAGCCUCC
modifications: RB540 with PS G5-A6
B42: EF-31 (RB435) (ssRNA)
RNA: GGGAGGACGAUGCGGUCUAAGCUGCGUCUGGCAUAAGCCUCACCUACUCGAUACUCAGACGACUCGCUGAGGAUCCGAGA
modifications: 2'-F C and U; 2'-OH A and G

In the first data set the target is T1, Glycoprotein VI extracellular domain …. The experiment in a line: filter. Conditions: tags: C-terminal His6; R&D Systems 3627-GP; label: 5'-32P. As for the experimental part:
Enrichment of the ligand libraries for GPVI was monitored in direct binding studies utilizing radiolabeled ligand RNA from respective rounds of SELEX and soluble GPVI. Binding studies were performed with trace P³² end-labeled RNA added to serial dilutions of GPVI in Binding Buffer F. To prepare radiolabeled RNAs for binding studies, one hundred picomoles of RNA was dephosphorylated with Bacterial Alkaline Phopshatase at 50° C. for 1 hour. The reaction was phenol:chloroform:isoamyl alcohol (25:24:1) extracted, chloroform: isoamyl:alcohol (24:1) extracted, and ethanol precipitated. Three pmoles of dephosphorylated RNA was end labeled with T4 Poylnucleotide Kinase with supplied buffer, and 20 μCi of γ-P³²-ATP and subsequently cleaned with a Biorad MicroBio Spin P-30 spin column. End-labeled RNA was diluted to a final concentration of 2000 cpm/μL and heat denatured at 65° C. for 5 minutes. RNA and GPVI dilutions were equilibrated at 37° C. prior to use. RNA (5 μL) was added to varying concentrations of GPVI (15 μL) at 37° C. and incubated together for 5 to 15 minutes. The complexed RNA/GPVI protein mixture was then loaded over a Protean BA85 nitrocellulose membrane, overlayed on a Genescreen Plus Nylon membrane, in a 96 well vacuum manifold system with washing. The membranes were exposed to a phosphorimager screen, scanned, and quantitated with a Molecular Dynamics Storm 840 Phosphorimager. The fraction bound was calculated by dividing the counts on the nitrocellulose by the total counts and adjusting for the background. Results for binding of enriched ligand libraries from round 10 E2 and round 10 EF of the SELEX as compared to the GPVI-naïve starting ligand library are shown in FIG. 3.
B1 showed a Kd of 15.5 nM.

Molecule B2 gave a Kd of 15.5 nM.

Molecule B3 displayed an equilibrium dissociation constant (Kd) of 15.5 nM.

In turn, B4 displayed a dissociation constant (Kd) above 40 nM.

Molecule B5 yielded an equilibrium dissociation constant (Kd) of 15.5 nM.

Molecule B6 had a dissociation constant (Kd) of 15.5 nM.

B7 displayed a Kd of 15.5 nM.

Molecule B8 yielded a Kd of 15.5 nM.

B9 yielded a Kd of 15.5 nM.

B10 had an equilibrium dissociation constant (Kd) of 15.5 nM.

With B11, binding was characterised by a dissociation constant (Kd) of 15.5 nM.

B12: the Kd is above 40 nM.

B13: the dissociation constant Kd is above 40 nM.

B14 had a Kd of 15.5 nM.

With B15, the affinity, expressed as Kd, was 15.5 nM.

In turn, B16 had a Kd of 15.5 nM.

On to B17, for which binding was characterised by a dissociation constant (Kd) of 15.5 nM.

B18 returned an equilibrium dissociation constant (Kd) above 40 nM.

Molecule B19 came in with a dissociation constant Kd of 15.5 nM.

The molecule B20 had a Kd of 15.5 nM.

For B21, the affinity, expressed as Kd, was 15.5 nM.

On to B22, for which the Kd stood at 15.5 nM.

Molecule B23 displayed a Kd of 15.5 nM.

Turning to B24, the Kd was found to be 15.5 nM.

B25 displayed a Kd of 15.5 nM.

B26 showed a Kd of 15.5 nM.

As for B27, the Kd came out at 15.5 nM.

B28 had a Kd of 15.5 nM.

Take B29: the equilibrium dissociation constant (Kd) was determined as 15.5 nM.

B30 yielded a Kd below 10 nM.

As for B31, the affinity, expressed as Kd, was 15.5 nM.

Consider B32, for which the Kd was determined as 15.5 nM.

The molecule B33 came in with a dissociation constant (Kd) below 10 nM.

Molecule B34 returned a dissociation constant Kd of 15.5 nM.

Regarding B35, the Kd was determined as 15.5 nM.

In the case of B36, the Kd is above 40 nM.

B37 returned a dissociation constant (Kd) above 40 nM.

B38: the Kd is above 40 nM.

B39 returned a Kd of 15.5 nM.

B40 had a dissociation constant Kd of 15.5 nM.

Consider B41, for which the affinity, expressed as Kd, was 15.5 nM.

On to B42, for which binding was characterised by a dissociation constant (Kd) of 15.5 nM.

For a further data set, the target named is T2, Glycoprotein VI extracellular domain (Gln21-Lys267) (Homo sapiens). As to the kind of experiment: filter. As to conditions: 2'-OH G1; 2'-deoxy A6,G8,G9; 2'-F C7,C14,C15,U16,C19,U21; all others 2'-OMe; hexaethylene glycol spacer between G11 and C12; 3' idT; buffer F, 37 C.
GGAGGACGGCGCGCCUGGCAUAAGCCUCC [RB540] displayed a Kd of 15 nM.

The same data set, now with this note: RB490 pattern; hexaethylene glycol spacer between G11 and C12; 3' idT.
Consider GGAGGACGGCGCGCCUGGCAUAAGCCUCC [RB507], for which the dissociation constant Kd was below 10 nM.

The same data set, now with this note: RB520 pattern; hexaethylene glycol spacer between G11 and C12; 3' idT; buffer F, 37 C.
GGAGGACGGCGCGCCUGGCAUAAGCCUCC [RB521] had a dissociation constant (Kd) of 6 nM.

Still in this data set, the particulars now being: RB526 pattern; hexaethylene glycol spacer between G11 and C12; 3' idT.
Regarding GGAGGACGGCGCGCCUGGCAUAAGCCUCC [RB537], the Kd is below 10 nM.

Staying with this data set, now noted: RB535 with 2'-OMe G9.
Consider GGGAGGACGACGCGUCUGGCAUAAGCCUCCC [RB536], for which the Kd was above 40 nM.

What is called Kd is a measure of binding affinity in units of concentration. Read a high Kd as a looser complex.
